Conditions in all cases: scale: ratio of % tetramer-binding CD8alpha-high cells, bound/unbound fraction
Experiment [1] addresses E-selectin expressed on CHO-E cells (UniProt P16581). Put plainly: un-manipulated PBMC, one hour rotary co-incubation with CHO-E monolayer, flow cytometry with tetramer B7-RPR.
The target is the same in experiment [2]. Put plainly: peptide-stimulated PBMC, one hour rotary co-incubation with CHO-E monolayer, flow cytometry with tetramer B7-APA. For orientation: A flow cytometer gives signals particle by particle.
Experiment [3] shares this target. In words: peptide-stimulated PBMC, one hour rotary co-incubation with CHO-E monolayer, flow cytometry with tetramer B7-RPR.

Values joined by “and” are separate entries in the source; they are usually repeats but may differ in a detail not shown here. Equal values may be shown once.

Consider “CLA-associated E-selectin ligand on HSV-2-specific CD8+ T-cells”, for which the CHO-E-selectin enrichment in experiment [1] was 13.2 and 10.1 and 5.6; in experiment [2] it was 8.3; in experiment [3], 9.5.

For the origin of these results see patent publication US20040072152A1.
